Assay results as given in patent US20180155451A1 (published 2018).
Read-outs that look alike come from different tables or passages of the source.

Assays:
Assay in all cases: SPR (Biacore), antibody captured on chip, FcgR extracellular domain as analyte
FcgRIIIa F [1] = target: T1, FcgRIIIa F (human, UniProt P08637 17-208)
T1 construct: extracellular domain; also called FcγRIIIa F; not shown: His tag attached to the C terminus

FcgRIa [2] = target: T2, FcgRIa (human, UniProt P12314 16-292)
T2 construct: extracellular domain; Expressed in FreeStyle293 cells and purified; used as analyte in Biacore; also called FcγRIa; FcγRI; not shown: His tag attached to the C terminus
T2 sequence (P12314 16-292): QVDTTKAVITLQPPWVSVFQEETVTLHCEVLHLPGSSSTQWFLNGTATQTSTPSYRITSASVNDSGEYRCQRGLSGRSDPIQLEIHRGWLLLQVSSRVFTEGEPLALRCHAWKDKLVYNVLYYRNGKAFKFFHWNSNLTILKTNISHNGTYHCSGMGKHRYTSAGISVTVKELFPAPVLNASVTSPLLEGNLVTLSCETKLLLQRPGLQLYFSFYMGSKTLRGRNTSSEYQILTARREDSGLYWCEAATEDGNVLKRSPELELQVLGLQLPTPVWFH

FcgRIIb [3] = target: T3, FcgRIIb (human, UniProt P31994 43-217)
T3 construct: extracellular domain; Expressed in FreeStyle293 cells and purified; used as analyte in Biacore; also called FcγRIIb; CD32B; not shown: His tag attached to the C terminus
T3 sequence (looked up): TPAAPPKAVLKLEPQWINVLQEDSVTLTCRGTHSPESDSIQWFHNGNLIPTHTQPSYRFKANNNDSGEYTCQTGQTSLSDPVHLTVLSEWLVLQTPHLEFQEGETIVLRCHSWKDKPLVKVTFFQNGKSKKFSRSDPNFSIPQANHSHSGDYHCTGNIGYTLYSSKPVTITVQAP

FcgRIIa H [4] = target: T4, FcgRIIa H (human, UniProt P12318 34-217)
T4 construct: extracellular domain; also called FcγRIIa H; FcγRIIa type H; not shown: His tag attached to the C terminus
T4 sequence (looked up): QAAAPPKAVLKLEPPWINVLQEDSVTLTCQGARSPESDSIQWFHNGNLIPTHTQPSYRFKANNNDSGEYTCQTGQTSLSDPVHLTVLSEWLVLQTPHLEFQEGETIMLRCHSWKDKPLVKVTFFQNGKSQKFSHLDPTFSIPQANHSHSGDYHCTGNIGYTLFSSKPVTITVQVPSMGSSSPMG

FcgRIIa R [5] = target: T5, FcgRIIa R (human, UniProt P12318 34-217)
T5 construct: extracellular domain; also called FcγRIIa R; FcγRIIa type R; not shown: His tag attached to the C terminus
T5 sequence (looked up): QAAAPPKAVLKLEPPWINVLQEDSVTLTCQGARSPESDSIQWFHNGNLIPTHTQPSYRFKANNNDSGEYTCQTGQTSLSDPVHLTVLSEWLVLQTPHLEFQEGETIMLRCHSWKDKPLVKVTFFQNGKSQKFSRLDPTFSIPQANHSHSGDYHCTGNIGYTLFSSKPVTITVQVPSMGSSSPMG

FcgRIIIa F [6] = target: T1, FcgRIIIa F; remark: listed apart in the source
FcgRIa [7] = target: T2, FcgRIa; remark: listed apart in the source
FcgRIIb [8] = target: T3, FcgRIIb; remark: listed apart in the source
FcgRIIa H [9] = target: T4, FcgRIIa H; remark: listed apart in the source
FcgRIIIa V [10] = target: T6, FcgRIIIa V (human, UniProt P08637 17-208)
T6 construct: extracellular domain; also called FcγRIIIa V; not shown: His tag attached to the C terminus
T6 sequence (P08637 17-208 F176V limits assumed): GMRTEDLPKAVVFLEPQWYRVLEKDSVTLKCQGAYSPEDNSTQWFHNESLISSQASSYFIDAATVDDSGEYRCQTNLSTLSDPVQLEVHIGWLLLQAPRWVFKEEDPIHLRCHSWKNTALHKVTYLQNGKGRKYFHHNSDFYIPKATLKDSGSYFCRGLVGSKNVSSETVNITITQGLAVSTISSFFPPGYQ

FcgRIIa R [11] = target: T5, FcgRIIa R; remark: listed apart in the source
FcgRIIIa F [12] = target: T1, FcgRIIIa F; remark: listed apart in the source
Protocol: (§1) Analysis of interaction between obj ective antibody and the FcγR was carried out using Biacore T100 (GE Healthcare), Biacore T200, Biacore A100, and Biacore 4000. HBS-EP+ (GE Healthcare) was used as the running buffer, and the measurement temperature was set to 25° C. Chips produced by immobilizing the antigen peptide by the amine coupling method to a Series S sensor Chip CM5 (GE Healthcare), chips produced by allowing preliminarily biotinylated antigen peptides to interact with and immobilize onto a Series S Sensor Chip SA (certified) (GE Healthcare), chips produced by immobilizing Protein L (ACTIGEN, BioVision) to Series S Sencor Chip CM5 (GE Healthcare), or chips produced by immobilizing Protein A/G (Thermo Scientific) to Series S Sencor Chip CM5 (GE Healthcare) were used. Antibodies of interest were captured onto these chips, and allowed to interact to each FcγR diluted with running buffer. To regenerate and repeatedly use the chip, the antibodies captured onto the chip were washed off by reacting 10 mM glycine-HCl, pH 1.5.

FcgRIa [13] = target: T2, FcgRIa; remark: listed apart in the source
Protocol: as §1

FcgRIIb [14] = target: T3, FcgRIIb; remark: listed apart in the source
Protocol: as §1

FcgRIIa H [15] = target: T4, FcgRIIa H; remark: listed apart in the source
Protocol: as §1

FcgRIIIa V [16] = target: T6, FcgRIIIa V; remark: listed apart in the source
Protocol: as §1

FcgRIIa R [17] = target: T5, FcgRIIa R; remark: listed apart in the source
Protocol: as §1

T1 sequence (P08637 17-208): as the sequence (P08637 17-208 F176V limits assumed) above, with V160F counted along it

- Kd (FcgRIIIa F [1]): 0.079 µM
- Kd (FcgRIa [2]): 0.00043 µM
- Kd (FcgRIIb [3]): 2.6 µM
- Kd (FcgRIIa H [4]): 0.78 µM
- Kd (FcgRIIa R [5]): 0.49 µM
- Kd (FcgRIIIa F [6]): 0.079 µM
- Kd (FcgRIa [7]): 0.00043 µM
- Kd (FcgRIIb [8]): 2.6 µM
- Kd (FcgRIIa H [9]): 0.78 µM
- Kd (FcgRIIIa V [10]): 0.0069 µM
- Kd (FcgRIIa R [11]): 0.49 µM
- Kd (FcgRIIIa F [12]): 0.079 µM
- Kd (FcgRIa [13]): 0.00043 µM
- Kd (FcgRIIb [14]): 2.6 µM
- Kd (FcgRIIa H [15]): 0.78 µM
- Kd (FcgRIIIa V [16]): 0.0069 µM
- Kd (FcgRIIa R [17]): 0.49 µM
B1: H240-afucosyl_G1d/L73-k0 (antibody, human IgG1, kappa)
heavy: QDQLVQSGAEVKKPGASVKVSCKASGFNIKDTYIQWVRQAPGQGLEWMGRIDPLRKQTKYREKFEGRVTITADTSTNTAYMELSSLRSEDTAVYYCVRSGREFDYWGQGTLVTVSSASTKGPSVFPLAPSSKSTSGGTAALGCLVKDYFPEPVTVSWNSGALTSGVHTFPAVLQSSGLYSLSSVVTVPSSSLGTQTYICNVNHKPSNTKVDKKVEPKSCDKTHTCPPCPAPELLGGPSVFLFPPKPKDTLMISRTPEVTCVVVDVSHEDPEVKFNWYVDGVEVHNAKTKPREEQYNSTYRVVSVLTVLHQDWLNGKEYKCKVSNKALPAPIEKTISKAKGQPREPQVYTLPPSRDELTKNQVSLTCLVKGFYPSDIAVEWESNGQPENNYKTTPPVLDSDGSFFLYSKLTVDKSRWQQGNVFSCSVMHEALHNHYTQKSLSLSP
light: DIQMTQSPSSLSASVGDRVTITCRASQDIHKYIAWYQQKPGQAPRLLIQYTSTLQPGVPSRFSGSGSGTDYTFTISSLQPEDIATYYCLQYEQLRTFGGGTKVEIKRTVAAPSVFIFPPSDEQLKSGTASVVCLLNNFYPREAKVQWKVDNALQSGNSQESVTEQDSKDSTYSLSSTLTLSKADYEKHKVYACEVTHQGLSSPVTKSFNRGEC
modifications: fucose removed from the sugar chain (afucosylated); amino acid sequence same as H240-G1d
notes: Anti-EREG IgG1 obtained by afucosylating H240-G1d/L73-k0; also called afucosylated antibody
